The supplement of paper PMC6757056
± gives the standard deviation of the averaged measurements.

B1: library; a variant is named by its letters at N, in order (parent)
chain: GCUGUCACCGGUGCUUGGUACGUUAUAUUCAGCCGGUCUGAUGAGUCUNNNNNNAGACGAAACAGC

What was measured:
(6R,S)-folinic acid [1] = variants of: B1; experiment: FACS-Seq fitted mean relative fluorescence mCherry/BFP without ligand (log10 relative fluorescence); HEK293T overexpressing SLC46A1; higher = higher reporter protein expression; details: without (6R,S)-folinic acid; ligand present: no
In short: (§1)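 HEK293T libraries were made by lentiviral transduction with a ribozyme-switch mCherry reporter and an EF1α-BFP marker, enriched, and incubated with or without ligand for 48 h. Cells were sorted into 6 mCherry/BFP bins, and each bin's genomic DNA was PCR-amplified, barcoded and run on MiSeq. Fluorescence was derived by normal fitting of the bin counts. The fitted log10(mCherry/BFP) mean was scaled to five spiked-in control ribozymes.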

(6R,S)-folinic acid [2] = variants of: B1; experiment: normalized RNA/DNA level without ligand (relative to sTRSVctl = 100) (log10 (% of sTRSVctl)); HEK293T overexpressing SLC46A1; higher = less ribozyme self-cleavage, higher mRNA level; details: without (6R,S)-folinic acid; ligand present: no
In short: (§2)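 Library plasmids carrying ribozyme switches linked to mCherry, or to eGFP in some ligand experiments, were transfected into HEK293T at 4 µg per 6-well well, with any ligand added 1 h earlier. Seventy-two hours on, total RNA was extracted with EDTA and reverse-transcribed, amplified, barcoded and sequenced. RNA level was RNA over DNA reads normalized to a spiked-in non-cleaving sequence or to the top sequences, then scaled and log-transformed. The top set was 25 sequences, the transform was ×100 and log10, and sequences needed ≥100 DNA reads.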

(6R,S)-folinic acid [3] = variants of: B1; experiment: FACS-Seq fitted mean relative fluorescence mCherry/BFP with ligand (log10 relative fluorescence); HEK293T overexpressing SLC46A1; ligand concentration (+) FACS-Seq: 6 mM; higher = higher reporter protein expression; details: with (6R,S)-folinic acid; ligand present: yes
In short: as §1

(6R,S)-folinic acid [4] = variants of: B1; experiment: normalized RNA/DNA level with ligand (relative to sTRSVctl = 100) (log10 (% of sTRSVctl)); HEK293T overexpressing SLC46A1; ligand concentration (+) RNA-Seq: 6 mM; higher = less ribozyme self-cleavage, higher mRNA level; details: with (6R,S)-folinic acid; ligand present: yes
In short: as §2

Row | Variant | FACS-Seq fitted mean (log10) ((6R,S)-folinic acid [1]) | normalized RNA/DNA level without ligand (log10) ((6R,S)-folinic acid [2]) | FACS-Seq fitted mean (log10) ((6R,S)-folinic acid [3]) | normalized RNA/DNA level with ligand (log10) ((6R,S)-folinic acid [4])
1 | CUAGGC | 0.0076 ± 0.12 | 2.005 ± 0.0013 | 0.186 ± 0.24 | 2 ± 0.028
2 | CUAGGU | 0.652 ± 0.16 | 2.024 ± 0.0033 | 0.694 ± 0.027 | 2.05 ± 0.028
3 | AUCGAG | 0.076 ± 0.01 | 1.813 ± 0.017 | 0.217 ± 0.22 | 2 ± 0.032
4 | AUCGAC | 0.0463 ± 0.0065 | 2.041 ± 0.0079 | 0.0476 ± 0.024 | 2.01 ± 0.03
5 | GUCAAG | 0.249 ± 0.027 | 1.974 ± 0.0083 | 0.168 ± 0.075 | 2.03 ± 0.045
6 | AUCUUG | 0.284 ± 0.023 | 1.952 ± 0.0043 | 0.288 ± 0.16 | 2.01 ± 0.028
7 | AUCUUA | 0.327 ± 0.012 | 2.042 ± 0.0064 | 0.337 ± 0.14 | 2.03 ± 0.043
8 | GUCGAU | 0.179 ± 0.051 | 1.986 ± 0.015 | 0.225 ± 0.17 | 2.02 ± 0.026
9 | GUCGAC | 0.479 ± 0.017 | 1.965 ± 0.0058 | 0.62 ± 0.022 | 2.025 ± 0.0097
10 | GUCGUA | 0.666 ± 0.21 | 2.0187 ± 0.00087 | 0.497 ± 0.34 | 2.01 ± 0.025
11 | UUCAAU | 0.465 ± 0.017 | 2.004 ± 0.013 | 0.748 ± 0.3 | 1.98 ± 0.052
12 | UUCAAA | 0.198 ± 0.18 | 1.972 ± 0.0074 | 0.0558 ± 0.029 | 2.009 ± 0.019
13 | UUCAAG | 0.372 ± 0.12 | 1.85 ± 0.014 | 0.562 ± 0.035 | 2.01 ± 0.034
14 | UUACGU | 0.339 ± 0.078 | 1.97 ± 0.0066 | 0.15 ± 0.074 | 2.01 ± 0.044
15 | GUCACC | 0.379 ± 0.15 | 2.07 ± 0.021 | 0.061 ± 0.042 | 2.063 ± 0.013
16 | GUCACG | 0.0918 ± 0.029 | 2.024 ± 0.0084 | 0.228 ± 0.096 | 2.042 ± 0.015
17 | UUCACU | -0.112 ± 0.034 | 2.059 ± 0.0067 | -0.112 ± 0.28 | 2.041 ± 0.02
18 | GUACAG | 0.519 ± 0.15 | 1.938 ± 0.018 | 0.81 ± 0.0085 | 2 ± 0.024
19 | GUACAC | 0.175 ± 0.17 | 1.984 ± 0.01 | 0.311 ± 0.16 | 2.029 ± 0.019
20 | UUACUG | -0.466 ± 0.24 | 1.902 ± 0.011 | -0.804 ± 0.28 | 2.01 ± 0.066
21 | GUCCGA | 0.497 ± 0.025 | 2.017 ± 0.0041 | 0.383 ± 0.061 | 2.007 ± 0.0092
22 | GUCCGG | -0.054 ± 0.18 | 2.042 ± 0.011 | -0.0351 ± 0.41 | 2.05 ± 0.063
23 | AUGAAA | 0.535 ± 0.016 | 1.944 ± 0.0099 | 0.656 ± 0.15 | 1.98 ± 0.033
24 | AUGAAG | 0.432 ± 0.049 | 1.836 ± 0.0092 | 0.578 ± 0.14 | 1.99 ± 0.048

Row | Variant | FACS-Seq fitted mean (log10) ((6R,S)-folinic acid [1]) | normalized RNA/DNA level without ligand (log10) ((6R,S)-folinic acid [2]) | FACS-Seq fitted mean (log10) ((6R,S)-folinic acid [3]) | normalized RNA/DNA level with ligand (log10) ((6R,S)-folinic acid [4])
25 | CUGAAA | 0.38 ± 0.12 | 1.986 ± 0.0076 | 0.578 ± 0.071 | 2 ± 0.014
26 | CUCGAG | 0.167 ± 0.042 | 1.96 ± 0.02 | 0.115 ± 0.2 | 1.977 ± 0.012
27 | UUGAAA | 0.358 ± 0.051 | 1.936 ± 0.014 | 0.286 ± 0.27 | 2.02 ± 0.028
28 | GUAGAA | 0.384 ± 0.0046 | 1.954 ± 0.0058 | 0.522 ± 0.23 | 1.995 ± 0.0074
29 | GUAGAG | 0.201 ± 0.057 | 1.759 ± 0.015 | 0.87 ± 0.12 | 1.98 ± 0.035
30 | GUAGAU | 0.516 ± 0.029 | 1.9541 ± 0.0012 | 0.494 ± 0.37 | 1.98 ± 0.047
31 | AUCGCU | 0.152 ± 0.036 | 2.026 ± 0.01 | 0.222 ± 0.45 | 2.013 ± 0.015
32 | GUAGGG | 0.666 ± 0.045 | 1.881 ± 0.0094 | 0.643 ± 0.24 | 1.99 ± 0.024
33 | UUCAGG | 0.449 ± 0.081 | 1.894 ± 0.0032 | 0.666 ± 0.2 | 1.98 ± 0.057
34 | GUGAAA | -0.0108 ± 0.075 | 1.956 ± 0.0062 | 0.313 ± 0.017 | 1.981 ± 0.016
35 | GUGAAG | 0.207 ± 0.012 | 1.9352 ± 0.0013 | 0.436 ± 0.27 | 2.02 ± 0.043
36 | UUCCAA | 0.112 ± 0.15 | 1.992 ± 0.0026 | 0.213 ± 0.13 | 2 ± 0.028
37 | GUCUAU | 0.0107 ± 0.49 | 2 ± 0.014 | 0.473 ± 0.4 | 2.02 ± 0.026
38 | AUAACU | -0.545 ± 0.34 | 2.009 ± 0.007 | -0.619 ± 0.76 | 2.02 ± 0.038
39 | AUAACC | -0.122 ± 0.045 | 2.011 ± 0.015 | -0.194 ± 0.26 | 2 ± 0.034
40 | AUAACA | 0.394 ± 0.16 | 2 ± 0.017 | 0.263 ± 0.35 | 1.98 ± 0.033
41 | UUACCC | 0.388 ± 0.015 | 2.018 ± 0.015 | 0.263 ± 0.21 | 2.01 ± 0.03
42 | CUCUUA | 0.211 ± 0.012 | 2.0064 ± 0.0006 | 0.143 ± 0.3 | 2 ± 0.03
43 | CUCGCA | 0.235 ± 0.086 | 2.06 ± 0.013 | 0.416 ± 0.3 | 2.062 ± 0.011
44 | CUCGCU | 0.424 ± 0.087 | 2.06 ± 0.044 | 0.349 ± 0.091 | 2.02 ± 0.038
45 | UUCGGC | 0.0747 ± 0.019 | 2.043 ± 0.013 | -0.314 ± 0.0053 | 2.04 ± 0.054
46 | GUCUCG | 0.378 ± 0.032 | 1.997 ± 0.0037 | 0.197 ± 0.26 | 2.003 ± 0.013
47 | CUCCGG | 0.136 ± 0.061 | 2.044 ± 0.0029 | -0.307 ± 0.12 | 2.05 ± 0.028
48 | CUCCGC | 0.443 ± 0.04 | 2.042 ± 0.0057 | 0.294 ± 0.047 | 1.985 ± 0.019

Row | Variant | FACS-Seq fitted mean (log10) ((6R,S)-folinic acid [1]) | normalized RNA/DNA level without ligand (log10) ((6R,S)-folinic acid [2]) | FACS-Seq fitted mean (log10) ((6R,S)-folinic acid [3]) | normalized RNA/DNA level with ligand (log10) ((6R,S)-folinic acid [4])
49 | GUACUA | 0.314 ± 0.17 | 2.046 ± 0.0037 | 0.428 ± 0.14 | 2.04 ± 0.026
50 | GUACUC | 0.541 ± 0.13 | 2.051 ± 0.016 | 0.366 ± 0.17 | 2.041 ± 0.013
51 | GUACUU | 0.484 ± 0.059 | 2.034 ± 0.015 | 0.386 ± 0.2 | 2.04 ± 0.06
52 | GUAGUG | 0.359 ± 0.012 | 1.856 ± 0.0051 | 0.637 ± 0.19 | 1.99 ± 0.054
53 | UUAAGG | 0.0635 ± 0.0074 | 1.855 ± 0.0022 | 0.25 ± 0.22 | 1.98 ± 0.025
54 | UUAAGA | 0.166 ± 0.039 | 1.95 ± 0.024 | 0.272 ± 0.014 | 2.04 ± 0.029
55 | CUCAAU | 0.0874 ± 0.13 | 1.97 ± 0.036 | 0.0541 ± 0.42 | 1.971 ± 0.011
56 | CUAAUA | 0.179 ± 0.11 | 1.974 ± 0.0043 | 0.335 ± 0.36 | 1.982 ± 0.007
57 | UUAUAC | 0.677 ± 0.11 | 1.994 ± 0.012 | 0.593 ± 0.097 | 1.99 ± 0.036
58 | UUAUAG | 0.192 ± 0.026 | 1.8081 ± 0.0015 | 0.396 ± 0.16 | 1.99 ± 0.034
59 | UUAUCU | 0.453 ± 0.099 | 2.0125 ± 0.0014 | 0.133 ± 0.1 | 2.03 ± 0.0072
60 | UUAGGG | 0.0949 ± 0.0093 | 1.776 ± 0.008 | 0.324 ± 0.11 | 2 ± 0.021
61 | UUAGGA | 0.674 ± 0.033 | 1.879 ± 0.014 | 0.677 ± 0.022 | 2 ± 0.045
62 | UUAGGC | 0.366 ± 0.0042 | 1.974 ± 0.0042 | 0.465 ± 0.26 | 2 ± 0.058
63 | GUCCAG | 0.335 ± 0.07 | 1.966 ± 0.011 | 0.103 ± 0.16 | 1.975 ± 0.018
64 | GUAAUG | 0.394 ± 0.16 | 1.94 ± 0.023 | 0.532 ± 0.053 | 1.98 ± 0.038
65 | GUAAUA | -0.154 ± 0.025 | 1.996 ± 0.006 | 0.161 ± 0.059 | 1.97 ± 0.039
66 | GUAAUC | 0.0594 ± 0.051 | 2.09 ± 0.023 | -0.00665 ± 0.0039 | 2.063 ± 0.0092
67 | GUCUGC | 0.325 ± 0.12 | 2.025 ± 0.0038 | 0.295 ± 0.085 | 2.07 ± 0.053
68 | GUCUGG | 0.433 ± 0.03 | 2.027 ± 0.0089 | 0.385 ± 0.25 | 2.07 ± 0.063
69 | GUACGG | 0.245 ± 0.024 | 1.953 ± 0.0076 | 0.584 ± 0.19 | 2.03 ± 0.032
70 | GUACGA | 0.269 ± 0.031 | 2.0027 ± 0.0013 | 0.139 ± 0.31 | 2.04 ± 0.051
71 | GUCUUG | 0.0388 ± 0.018 | 1.974 ± 0.0081 | 0.151 ± 0.32 | 2.05 ± 0.049
72 | UUCAUG | 0.548 ± 0.083 | 1.86 ± 0.014 | 0.703 ± 0.25 | 1.97 ± 0.067
